The text below walks through data of IntAct's records for PubMed 14519764.

To fix the notation:
B1: Metabotropic glutamate receptor 1 (Rattus norvegicus (Rat)), P23385 (parent)
chain: MVRLLLIFFPMIFLEMSILPRMPDRKVLLAGASSQRSVARMDGDVIIGALFSVHHQPPAEKVPERKCGEIREQYGIQRVEAMFHTLDKINADPVLLPNITLGSEIRDSCWHSSVALEQSIEFIRDSLISIRDEKDGLNRCLPDGQTLPPGRTKKPIAGVIGPGSSSVAIQVQNLLQLFDIPQIAYSATSIDLSDKTLYKYFLRVVPSDTLQARAMLDIVKRYNWTYVSAVHTEGNYGESGMDAFKELAAQEGLCIAHSDKIYSNAGEKSFDRLLRKLRERLPKARVVVCFCEGMTVRGLLSAMRRLGVVGEFSLIGSDGWADRDEVIEGYEVEANGGITIKLQSPEVRSFDDYFLKLRLDTNTRNPWFPEFWQHRFQCRLPGHLLENPNFKKVCTGNESLEENYVQDSKMGFVINAIYAMAHGLQNMHHALCPGHVGLCDAMKPIDGRKLLDFLIKSSFVGVSGEEVWFDEKGDAPGRYDIMNLQYTEANRYDYVHVGTWHEGVLNIDDYKIQMNKSGMVRSVCSEPCLKGQIKVIRKGEVSCCWICTACKENEFVQDEFTCRACDLGWWPNAELTGCEPIPVRYLEWSDIESIIAIAFSCLGILVTLFVTLIFVLYRDTPVVKSSSRELCYIILAGIFLGYVCPFTLIAKPTTTSCYLQRLLVGLSSAMCYSALVTKTNRIARILAGSKKKICTRKPRFMSAWAQVIIASILISVQLTLVVTLIIMEPPMPILSYPSIKEVYLICNTSNLGVVAPVGYNGLLIMSCTYYAFKTRNVPANFNEAKYIAFTMYTTCIIWLAFVPIYFGSNYKIITTCFAVSLSVTVALGCMFTPKMYIIIAKPERNVRSAFTTSDVVRMHVGDGKLPCRSNTFLNIFRRKKPGAGNANSNGKSVSWSEPGGRQAPKGQHVWQRLSVHVKTNETACNQTAVIKPLTKSYQGSGKSLTFSDASTKTLYNVEEEDNTPSAHFSPPSSPSMVVHRRGPPVATTPPLPPHLTAEETPLFLADSVIPKGLPPPLPQQQPQQPPPQQPPQQPKSLMDQLQGVVTNFGSGIPDFHAVLAGPGTPGNSLRSLYPPPPPPQHLQMLPLHLSTFQEESISPPGEDIDDDSERFKLLQEFVYEREGNTEEDELEEEEDLPTASKLTPEDSPALTPPSPFRDSVASGSSVPSSPVSESVLCTPPNVTYASVILRDYKQSSSTL

Variants of B1 are the subject of the assay. To be noted: with pp1g_rat Ppp1cc.
With S892A, the “effect of a mutation on the interaction” value is given as “decreasing interaction”.
